System: human neutrophils
Experiment: Chemotaxis of peripheral blood neutrophils
Assay type: cell-based
Experimental: 10^6 cells were washed with HBSS containing 0.2% BSA before putting into transwell insert with 5 μm pore size (Corning Incorporated, Lowell, Mass.). In the lower chamber, media alone or media with various cytokines at various concentrations (maximum at 200 ng/ml) was added. After 3 hr at 37° C., cells in the lower chamber were transferred, mixed with 9 ml ZPAK solution and counted on Z2 Coulter Particle Count and Size Analyzer (Beckman Coulter, Fullerton, Calif.).

B1: G-CSF: recombinant granulocyte-CSF: mouse or human (R&D Systems) or human Neupogen (Amgen) (protein, chains of the INN, looked up)
chain: MTPLGPASSLPQSFLLKCLEQVRKIQGDGAALQEKLCATYKLCHPEELVLLGHSLGIPWAPLSSCPSQALQLAGCLSQLHSGLFLYQGLLQALEGISPELGPTLDTLQLDVADFATTIWQQMEELGMAPALQPTQGAMPAFASAFQRRAGGVLVASHLQSFLEVSYRVLRHLAQP
With B1 the “concentration required to stimulate neutrophil migration” value was 20 nM.

From US9284369B2, “Inhibition of angiogenesis” (Genentech, Inc., priority 2007, dated 2016)
